Source: patent publication US20230192896A1 (BIOVERATIV THERAPEUTICS, published 2023)

target: T1, free FIXa (activated Factor IX) (human, UniProt P00740 47-191; P00740 227-461); assay: cell-based or functional assay

rate of ATIII inhibition of FIXa (ATIII-FIXa complex band on gel) | rate of substrate (ADG299) cleavage by FIXa (amidolytic activity) | Binder
~3 fold | 3 fold | BIIB-9-1336 (antibody, V domains shown) VH: EVQLVESGGGLVKPGGSLRLSCAASGFTFGSYDMNWVRQAPGKGLEWVSSISSGESYIYYAESVKGRFTISRDNAKNSLYLQMNSLRAEDTAVYYCARDVGGYAGYYGMDVWGQGTTVTVSS VL: not shown
~3 fold | – | BIIB-9-1335 (antibody, V domains shown) VH: EVQLVESGGGLVKPGGSLRLSCAASGFTFSSYDMHWVRQAPGKGLEWVSSISSGSSYIYYADSVKGRFTISRDNAKNSLYLQMNSLRAEDTAVYYCARDVGGYAGYYGMDVWGQGTTVTVSS VL: not shown
– | 3 fold | BIIB-9-1336 one-armed (antibody, V domains shown) VH: EVQLVESGGGLVKPGGSLRLSCAASGFTFGSYDMNWVRQAPGKGLEWVSSISSGESYIYYAESVKGRFTISRDNAKNSLYLQMNSLRAEDTAVYYCARDVGGYAGYYGMDVWGQGTTVTVSS VL: not shown

target: T2, FXa-SM (FXa+EGR-CMK) (human, UniProt P00742 41-179; P00742 235-488, EGR-CMK covalently bound to the active site); assay: BLI; class meaning: paragraph 285
T2 construct: Bought from Haematologic Technologies (HCXA-EGR); also called covalently modified FXa; FXa mimic
T2 sequence (P00742 41-179, chain 1 of 2): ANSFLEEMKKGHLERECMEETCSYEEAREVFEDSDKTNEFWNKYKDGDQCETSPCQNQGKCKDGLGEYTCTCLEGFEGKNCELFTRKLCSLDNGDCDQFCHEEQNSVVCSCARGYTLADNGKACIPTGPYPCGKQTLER
T2 sequence (P00742 235-488, chain 2 of 2): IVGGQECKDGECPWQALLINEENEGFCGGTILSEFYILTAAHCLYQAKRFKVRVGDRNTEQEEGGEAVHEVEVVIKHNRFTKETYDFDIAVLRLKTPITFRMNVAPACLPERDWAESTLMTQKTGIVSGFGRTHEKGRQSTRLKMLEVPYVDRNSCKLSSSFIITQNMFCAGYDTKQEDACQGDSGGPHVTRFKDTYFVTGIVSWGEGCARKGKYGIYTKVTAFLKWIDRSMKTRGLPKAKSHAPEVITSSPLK

binding result | Binder
binds | BIIB-12-1321 (antibody, V domains shown, IgG) VH: QVQLVQSGAEVKKPGSSVKVSCKASGGTFSSYAISWVRQAPGQGLEWMGGIIPIFGTANYAQKFQGRVTITADESTSTAYMELSSLRSEDTAVYYCARTPDTSSATDWGQGTLVTVSS VL: EIVMTQSPATLSLSPGERATLSCRASQSVSSYLAWYQQKPGQAPRLLIYDSSNRATGIPARFSGSGSGTDFTLTISSLEPEDFAVYYCQQFTNLPYTFGGGTKVEIK
binds | BIIB-12-1320 (antibody, V domains shown, IgG) VH: QLQLQESGPGLVKPSETLSLTCTVSGGSISSSSYYWGWIRQPPGKGLEWIGSIYYSGSTYYNPSLKSRVTISVDTSKNQFSLKLSSVTAADTAVYYCARGSGLLVREHYYYYMDVWGKGTTVTVS VL: DIQMTQSPSSLSASVGDRVTITCRASQSISSYLNWYQQKPGKAPKLLIYAASSLQSGVPSRFSGSGSGTDFTLTISSLQPEDFATYYCQQADDTPWTFGGGTKVEIK
binds | BIIB-12-894 (antibody, V domains shown, IgG) VH: QLQLQESGPGLVKPSETLSLTCTVSGGSISSSSYYWGWIRQPPGKGLEWIGSIYYSGSTYYNPSLKSRVTISVDTSKNQFSLKLSSVTAADTAVYYCAREGAHSSMAGLDVWGQGTMVTVSS VL: not shown

target: T1, free FIXa (activated Factor IX); assay: yeast display selection and BLI as in Examples 1 and 5

Binder | binding result
BIIB-9-3754 (antibody, V domains shown) VH: EVQLVESGGGLVKPGGSLRLSCAASGFTFGSYDMNWVRQAPGKGLEWVSSISSGESYIYYAESVKGRFTISRDNAKNSLYLQMNSLRAEDTAVYYCARDVGGYAGFYGMDVWGQGTTVTVSS VL: not shown | binds
BIIB-9-3766 (antibody, V domains shown) VH: EVQLVESGGGLVKPGGSLRLSCAASGFTFGSYDMNWVRQAPGKGLEWVSSISSGESYIYYAESVKGRFTISRDNAKNSLYLQMNSLRAEDTAVYYCARDVGGYAGYYGMDVWGQGTTVTVSS VL: DIQMTQSPSSLSASVGDRVTITCEASEDISNYLNWYQQKPGKAPKLLIYDASNLQYGVPSRFSGSGSGTDFTFTISSLQPEDIATYYCSQYANFPYTFGGGTKVEIK | binds
BIIB-9-3753 (antibody, V domains shown) VH: EVQLVESGGGLVKPGGSLRLSCAASGFTFGSYDMNWVRQAPGKGLEWVSSISDSASYIAYADSVKGRFTISRDNAKNSLYLQMNSLRAEDTAVYYCARDVSGYAGYYGMDVWGQGTTVTVSS VL: not shown | binds
BIIB-9-3704 (antibody, V domains shown, daughter of BIIB-9-578) VH: QVQLQESGPGLVKPSQTLSLTCTVSGGSISSGAYAWSWIRQHPGKGLEWIGYIYYQGKTYYNPSLKSRVTISVDTSKNQFSLKLSSVTAADTAVYYCARDKYQDYSFDIWGQGTMVTVSS VL: DIQMTQSPSSVSASVGDRVTITCRASQGIDSWLAWYQQKPGKAPKLLIYAASSLQSGVPSRFSGSGSGTDFTLTISSLQPEDFATYYCQQANFLPFTFGGGTKVEIK | binds
BIIB-9-3675 (antibody, V domains shown, daughter of BIIB-9-578) VH: QLQLQESGPGLVKPSETLSLTCTVSGGSISSTSYYWVWIRQPPGKGLEWIGSITASGSTYYNPSLKSRVTISVDTSKNQFSLKLSSVTAADTAVYYCARDKYQDYSFDIWGQGTMVTVSS VL: DIQMTQSPSSVSASVGDRVTITCRASQGIDSWLAWYQQKPGKAPKLLIYAASSLQSGVPSRFSGSGSGTDFTLTISSLQPEDFATYYCQQANFLPFTFGGGTKVEIK | binds
BIIB-9-3698 (antibody, V domains shown, daughter of BIIB-9-578) VH: QLQLQESGPGLVKPSETLSLTCTVSGGSIASSSYYWSWIRQPPGKGLEWIGSIRGSGSTYYNPSLKSRVTISVDTSKNQFSLKLSSVTAADTAVYYCARDKYQDYSFDIWGQGTMVTVSS VL: DIQMTQSPSSVSASVGDRVTITCRASQGIDSWLAWYQQKPGKAPKLLIYAASSLQSGVPSRFSGSGSGTDFTLTISSLQPEDFATYYCQQANFLPFTFGGGTKVEIK | binds

Now from value to binder:

binding result | Binder
binds | BIIB-9-3764 (antibody, V domains shown) VH: EVQLVESGGGLVKPGGSLRLSCAASGFTFGSYDMNWVRQAPGKGLEWVSSISSGESYIYYAESVKGRFTISRDNAKNSLYLQMNSLRAEDTAVYYCARDVGGYAGYYGMDVWGQGTTVTVSS VL: DIQMTQSPSSLSASVGDRVTITCGANQYISDYLNWYQQKPGKAPKLLIYDAANLHTGVPSRFSGSGSGTDFTFTISSLQPEDIATYYCQQYARFPYTFGGGTKVEIK
binds | BIIB-9-3756 (antibody, V domains shown) VH: EVQLVESGGGLVKPGGSLRLSCAASGFTFGSYDMNWVRQAPGKGLEWVSSISSGESYIYYAESVKGRFTISRDNAKNSLYLQMNSLRAEDTAVYYCVRDVGGYAGYYGMDVWGQGTTVTVSS VL: not shown
binds | BIIB-9-3654 (antibody, V domains shown) VH: EVQLVESGGGLVKPGGSLRLSCAASGFTFESYSMNWVRQAPGKGLEWVSGISSASSYIYYADSVKGRFTISRDNAKNSLYLQMNSLRAEDTAVYYCARDVGGYAGYYGMDVWGQGTTVTVSS VL: not shown
binds | BIIB-9-3745 (antibody, V domains shown, daughter of BIIB-9-619) VH: QVQLVQSGAEVKKPGASVKVSCKASGYTFTGYPMHWVRQAPGQGLEWMGSINPSRGSTSYAQKFQGRVTMTRDTSTSTVYMELSSLRSEDTAVYYCARDGPRVSDYYMDVWGKGTTVTVSS VL: EIVLTQSPATLSLSPGERATLSCRASQSVSSYLAWYQQKPGQAPRLLIYDASNRATGIPARFSGSGSGTDFTLTISSLEPEDFAVYYCQQRDNWPFTFGGGTKVEIK
binds | BIIB-9-3684 (antibody, V domains shown, daughter of BIIB-9-578) VH: QLQLQESGPGLVKPSETLSLTCTVSGGSISSVSYYWNWIRQPPGKGLEWIGSITYSGSTQYNPSLKSRVTISVDTSKNQFSLKLSSVTAADTAVYYCARDKYQDYSFDIWGQGTMVTVSS VL: DIQMTQSPSSVSASVGDRVTITCRASQGIDSWLAWYQQKPGKAPKLLIYAASSLQSGVPSRFSGSGSGTDFTLTISSLQPEDFATYYCQQANFLPFTFGGGTKVEIK
binds | BIIB-9-3681 (antibody, V domains shown, daughter of BIIB-9-578) VH: QLQLQESGPGLVKPSETLSLTCTVSGGSISSGSYYWNWIRQPPGKGLEWIGSIQPSGSTYYNPSLKSRVTISVDTSKNQFSLKLSSVTAADTAVYYCARDKYQDYSFDIWGQGTMVTVSS VL: DIQMTQSPSSVSASVGDRVTITCRASQGIDSWLAWYQQKPGKAPKLLIYAASSLQSGVPSRFSGSGSGTDFTLTISSLQPEDFATYYCQQANFLPFTFGGGTKVEIK
binds | BIIB-9-3780 (antibody, V domains shown, daughter of BIIB-9-578) VH: QLQLQESGPGLVKPSETLSLTCTVSGGSISSSSYYWGWIRQPPGKGLEWIGSISYSGSTYYNPSLKSRVTISVDTSKNQFSLKLSSVTAADTAVYYCARDKYQDYSVDIWGQGTMVTVSS VL: DIQMTQSPSSVSASVGDRVTITCRASQGIDSWLAWYQQKPGKAPKLLIYAASSLQSGVPSRFSGSGSGTDFTLTISSLQPEDFATYYCQQANFLPFTFGGGTKVEIK

target: T1, free FIXa (activated Factor IX); assay: BLI, IgG on AHQ sensor, 100 nM antigen (the weaker partner)
Protocol: BLI was performed on the OctetRed94 or the Octet HTX system, according to standard procedure. Briefly, biosensors were equilibrated in Tris-buffered saline supplemented with 5 mM CaCl₂ and 0.1% bovine serum albumin (TBSFCa). Plates were then transferred to the instrument. A soak step was performed on the instrument, with incubation of the biosensors for 60 seconds in TBSFCa. […] Following this, the biosensors were incubated in TBSFCa for 60 seconds to establish baseline. Next, the biosensors were transferred to wells containing the desired antigen (100 nM in TBSFCa) and incubated for 90 seconds. Finally, the sensors were transferred to TBSFCa alone for 90 seconds incubation.

binding result | Binder
binds | BIIB-9-612 (antibody, V domains shown, IgG) VH: QVQLVQSGAEVKKPGASVKVSCKASGYTFTSYYMHWVRQAPGQGLEWMGIINPSGGSTSYAQKFQGRVTMTRDTSTSTVYMELSSLRSEDTAVYYCARDAGYHWYGMDVWGQGTTVTVSS VL: EIVLTQSPATLSLSPGERATLSCRASQSVSRYLAWYQQKPGQAPRLLIYDASNRATGIPARFSGSGSGTDFTLTISSLEPEDFAVYYCQQSSLFPLTFGGGTKVEIK
binds | BIIB-9-578 (antibody, V domains shown, IgG) VH: QLQLQESGPGLVKPSETLSLTCTVSGGSISSSSYYWGWIRQPPGKGLEWIGSISYSGSTYYNPSLKSRVTISVDTSKNQFSLKLSSVTAADTAVYYCARDKYQDYSFDIWGQGTMVTVSS VL: DIQMTQSPSSVSASVGDRVTITCRASQGIDSWLAWYQQKPGKAPKLLIYAASSLQSGVPSRFSGSGSGTDFTLTISSLQPEDFATYYCQQANFLPFTFGGGTKVEIK
binds | BIIB-9-631 (antibody, V domains shown, IgG) VH: QVQLVQSGAEVKKPGASVKVSCKASGYTFTSYYMHWVRQAPGQGLEWMGIINPSGGSTSYAQKFQGRVTMTRDTSTSTVYMELSSLRSEDTAVYYCARAENRGDYEAWGQGTLVTVSS VL: DIQMTQSPSSVSASVGDRVTITCRASQGISRWLAWYQQKPGKAPKLLIYAASSLQSGVPSRFSGSGSGTDFTLTISSLQPEDFATYYCQQRTSFPLTFGGGTKVEIK
binds | BIIB-9-397 (antibody, V domains shown, IgG) VH: QVQLQESGPGLVKPSETLSLTCAVSGYSISSGYYWAWIRQPPGKGLEWIGSIYHSGSTYYNPSLKSRVTISVDTSKNQFSLKLSSVTAADTAVYYCARDVWYVGGFDPWGQGTLVTVSS VL: DIQMTQSPSSLSASVGDRVTITCQASQDISNYLNWYQQKPGKAPKLLIYDASNLETGVPSRFSGSGSGTDFTFTISSLQPEDIATYYCQQSDDHPPTFGGGTKVEIK
